Laboratory results published in the RNAGym collection of RNA variant scans (doi:10.1073/pnas.2313332121).

B1: TPR t1 (parent)
chain: GACCAAUCUGCCCUCAGAGCUCGAGAACAUCUUCGGAUGCAGAGGAGGCAGGCUUCGGUGGCGCGAUAGCGCCAACGUCCUCAACCUCCAAUGCAUCCCACCACAUGAUGAUGCCUGAAGAGCCUUGGUUUUUUG

Variants of: B1
Assay: polymerase ribozyme fitness, log enrichment relative to wild type (log ratio); higher = more active; in vitro selection for triplet polymerase activity
How it was run: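 Frozen incubation at −7 °C formed the core of a single, triplicate in vitro selection round applied to PCR-built, transcribed mutant libraries of each subunit of a heterodimeric triplet polymerase ribozyme. Extended constructs were gel-excised, captured with streptavidin beads and amplified by RT-PCR, and input and output libraries were Illumina-sequenced with a filter of ≥10 input reads and ≥1 read per output. Fitness is the logarithm of genotype enrichment relative to wild-type enrichment, with inverse-variance-weighted replicate averaging, and the logarithm is base 2.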

Variant | polymerase ribozyme fitness (log ratio)
G44U G117A | -2.13
A2G G17A | -2.9
U78C C124U | 1.72
C15A A118G | -2.6
C22G G52U C73U A95C | -5.41
G35U C64U U78C | -5.42
G39U C79U C89A A111U | -5.59
C13U C62A U78C A118U G122A | -2.29
G69A C89U | -2.85
U9A A37U U81G | -2.86
U59A C89U | -0.0389
C13U A26G | -2.64
C88U A90G C99U | -2.84
A2U C3G C79A G113A C124G | -4.18
G61A U131G | -0.0143
C62A G117U | -3.38
C80G G110C | -6.58
U9A A27C G71A G117C | -6.31
C3U G36C G58C U112G | -0.836
C8A A68G C114A | -4.66
C72G G117C | -3.87

Variant | polymerase ribozyme fitness (log ratio)
A27C G57C | -3.36
A43C C72A G122A | -3.17
U54A G71U U87G C123A | -0.353
C4G C102A | -3.83
G47A A50G G113A | -2.34
A6U U112A | 0.759
G10U A46U C82G G127U | -3.03
A46U G93A | -1.93
G17A C72G C124G | -0.994
C28U G117U | -3.99
C34A G63A | -4.65
A41U C70G | -5.5
G42A A90C U96A G117U | -5.05
G10U A46C C70G C94U U133A G135U | -4.06
C13U C56U U106G C114G | -4.09
G69A G113A | -2.7
U7C C40U C98A A121C | -3.62
A50C G61U C79G | -2.93
C53U G60A A84C | -0.485
U9C C11G G36U U116A C123G | -1.92
G10C U106C G127A G135U | -3.46

Variant | polymerase ribozyme fitness (log ratio)
G48U U106C G117C | -5.18
A84U U129A | -1.65
A5U G17A G69A C79U G113U | -6.54
C3U U9C C88G U116C | -0.482
C64U U87G G113A | -0.485
C72A U92A A121U U125G | -1.7
A29G U109C | 0.997
C11U U116C | -1.29
G19C C62U U112G | -6.55
C115U G120A U131A | -2.07
A5U G36C G48U C85U | -2.32
A37G A46U C56A G120A | -1.7
C13A G48U A111C | -2.2
C12G G47C | -1.34
U9A G39U G45U | -0.618
U81A A83U C115A | -1.27
C8A G35U G58C | -4.74
C15A C73G | -3.16
A41G A121U | 1.72
C31U U32A G47C G61C G63A C115U | -7.14
C13U A29U A46U C56A C115U | -2.01

Variant | polymerase ribozyme fitness (log ratio)
G10C C49A G71U | -1.17
C22G G63U | -4.31
C56U C101A | -1.79
C56U C101U | 0.177
C8U U96A C123G | 1.65
C72G C82U U131G | -0.338
U7A A50U C82U A111C | -1.72
C4U A5G U38A C70U G120A | -1.12
A18U A41U | -2.88
U7C G135U | -0.566
G61A A121C | 1.95
U33A C89A G117U | -5.96
C22A C70A G122U | -5.4
G39U C101A | -2.22
C8U U38A C70U | -1.62
A6U G39A C88A | -1.23
G52U U54G G69C | -4.27
G39C C97U G120C | 0.357
C89A C94U U116A | -5.8
C13A A43G | -3.45
